Results as given in publication PMC8409903.

Target: T1, mixed lineage kinase domain-like pseudokinase (MLKL) (human (endogenous in platelets)), Q8NB16
T1 chain: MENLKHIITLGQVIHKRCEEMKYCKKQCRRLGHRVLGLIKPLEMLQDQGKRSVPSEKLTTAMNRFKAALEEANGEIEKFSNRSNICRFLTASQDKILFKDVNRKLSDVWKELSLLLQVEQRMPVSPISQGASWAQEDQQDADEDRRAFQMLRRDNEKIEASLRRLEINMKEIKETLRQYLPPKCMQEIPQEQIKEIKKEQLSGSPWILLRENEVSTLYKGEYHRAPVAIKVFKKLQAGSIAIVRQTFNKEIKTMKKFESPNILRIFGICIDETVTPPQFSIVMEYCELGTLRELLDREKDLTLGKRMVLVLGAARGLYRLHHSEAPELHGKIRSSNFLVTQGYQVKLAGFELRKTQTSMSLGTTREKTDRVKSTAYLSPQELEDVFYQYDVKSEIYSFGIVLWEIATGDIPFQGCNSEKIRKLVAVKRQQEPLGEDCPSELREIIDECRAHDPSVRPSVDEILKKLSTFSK
Assay: western blot of platelets
Details: remark: other sources report otherwise

stoichiometry N: 8
B1: mixed lineage kinase domain-like pseudokinase (MLKL), Q8NB16 1-471 (natural protein)
chain: T1 chain
